Where two headings read alike, the source gives them in different places.
T1: 4H2580-AA
T1 chain: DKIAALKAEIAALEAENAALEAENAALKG

T2: 4H483-AA
T2 chain: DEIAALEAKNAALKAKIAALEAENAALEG

T3: 4H464-AA
T3 chain: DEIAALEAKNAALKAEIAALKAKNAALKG

T4: 4H63-AA
T4 chain: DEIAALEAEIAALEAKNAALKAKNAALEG

T5: 4H446-AA
T5 chain: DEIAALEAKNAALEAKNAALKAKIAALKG

T6: 4H3969-AA
T6 chain: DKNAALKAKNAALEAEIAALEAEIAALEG

T7: 4H3939-AA
T7 chain: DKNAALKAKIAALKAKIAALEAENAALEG

T8: 4H3129-AA
T8 chain: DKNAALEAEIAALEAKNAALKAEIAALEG

T9: 4H2592-AA
T9 chain: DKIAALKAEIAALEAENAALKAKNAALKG

T10: 4H3414-AA
T10 chain: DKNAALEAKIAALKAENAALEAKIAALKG

T11: 4H2774-AA
T11 chain: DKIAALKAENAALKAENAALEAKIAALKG

T12: 4H2190-AA
T12 chain: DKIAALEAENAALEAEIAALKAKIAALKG

T13: 4H3162-AA
T13 chain: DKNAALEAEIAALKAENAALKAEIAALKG

T14: P9-AA
T14 chain: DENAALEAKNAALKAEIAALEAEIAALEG

T15: 4H2944-AA
T15 chain: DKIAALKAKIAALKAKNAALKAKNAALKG

T16: 4H1874-AA
T16 chain: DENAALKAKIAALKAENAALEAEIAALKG

T17: 4H2393-AA
T17 chain: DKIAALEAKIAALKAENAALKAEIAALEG

T18: 4H881-AA
T18 chain: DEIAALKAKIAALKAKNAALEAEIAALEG

T19: 4H3588-AA
T19 chain: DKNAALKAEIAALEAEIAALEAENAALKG

T20: 4H384-AA
T20 chain: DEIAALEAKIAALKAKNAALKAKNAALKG

T21: 4H3378-AA
T21 chain: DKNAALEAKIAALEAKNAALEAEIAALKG

T22: 4H794-AA
T22 chain: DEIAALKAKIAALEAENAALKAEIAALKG

T23: 4H2883-AA
T23 chain: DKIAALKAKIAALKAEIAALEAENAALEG

T24: 4H32-AA
T24 chain: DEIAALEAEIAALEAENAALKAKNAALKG

T25: 4H3427-AA
T25 chain: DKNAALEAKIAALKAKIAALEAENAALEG

T26: 4H2642-AA
T26 chain: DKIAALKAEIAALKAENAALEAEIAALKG

T27: 4H1629-AA
T27 chain: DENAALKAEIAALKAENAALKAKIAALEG

T28: 4H2837-AA
T28 chain: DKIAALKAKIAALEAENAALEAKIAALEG

T29: 4H234-AA
T29 chain: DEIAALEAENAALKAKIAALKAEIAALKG

T30: 4H48-AA
T30 chain: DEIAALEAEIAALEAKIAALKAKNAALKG

T31: 4H2617-AA
T31 chain: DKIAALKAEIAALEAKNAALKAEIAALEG

T32: 4H1626-AA
T32 chain: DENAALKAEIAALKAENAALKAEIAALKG

T33: 4H1478-AA
T33 chain: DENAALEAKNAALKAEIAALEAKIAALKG

T34: 4H1579-AA
T34 chain: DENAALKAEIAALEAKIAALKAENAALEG

T35: 4H94-AA
T35 chain: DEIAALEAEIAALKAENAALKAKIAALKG

T36: 4H2162-AA
T36 chain: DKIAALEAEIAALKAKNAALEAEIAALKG

T37: 4H1385-AA
T37 chain: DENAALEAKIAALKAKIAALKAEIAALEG

T38: 4H485-AA
T38 chain: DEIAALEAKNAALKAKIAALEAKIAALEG

T39: 4H310-AA
T39 chain: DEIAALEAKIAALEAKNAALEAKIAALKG

T40: 4H2698-AA
T40 chain: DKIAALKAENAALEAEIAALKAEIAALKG

T41: 4H2649-AA
T41 chain: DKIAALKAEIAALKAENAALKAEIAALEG


Legend:
Assay in all cases: two-hybrid library CCmax;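 note: natural log of median RNA to DNA barcode read ratio; higher means stronger binding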
4H2580-AA = target: T1, 4H2580-AA; conditions: mean of both orientations
4H483-AA = target: T2, 4H483-AA; conditions: mean of both orientations
4H464-AA = target: T3, 4H464-AA; conditions: mean of both orientations
4H63-AA = target: T4, 4H63-AA; conditions: mean of both orientations
4H446-AA = target: T5, 4H446-AA; conditions: mean of both orientations
4H3969-AA = target: T6, 4H3969-AA; conditions: mean of both orientations
4H3939-AA = target: T7, 4H3939-AA; conditions: mean of both orientations
4H3129-AA = target: T8, 4H3129-AA; conditions: mean of both orientations
4H2592-AA = target: T9, 4H2592-AA; conditions: mean of both orientations
4H3414-AA = target: T10, 4H3414-AA; conditions: mean of both orientations
4H2774-AA = target: T11, 4H2774-AA; conditions: mean of both orientations
4H2190-AA = target: T12, 4H2190-AA; conditions: mean of both orientations
4H3162-AA = target: T13, 4H3162-AA; conditions: mean of both orientations
P9-AA = target: T14, P9-AA; conditions: mean of both orientations
4H2944-AA = target: T15, 4H2944-AA; conditions: mean of both orientations
4H1874-AA = target: T16, 4H1874-AA; conditions: mean of both orientations
4H2393-AA = target: T17, 4H2393-AA; conditions: mean of both orientations
4H881-AA = target: T18, 4H881-AA; conditions: mean of both orientations
4H3588-AA = target: T19, 4H3588-AA; conditions: mean of both orientations
4H384-AA = target: T20, 4H384-AA; conditions: mean of both orientations
4H3378-AA = target: T21, 4H3378-AA; conditions: mean of both orientations
4H794-AA = target: T22, 4H794-AA; conditions: mean of both orientations
4H2883-AA = target: T23, 4H2883-AA; conditions: mean of both orientations
4H32-AA = target: T24, 4H32-AA; conditions: mean of both orientations
4H3427-AA = target: T25, 4H3427-AA; conditions: mean of both orientations
4H2642-AA = target: T26, 4H2642-AA; conditions: mean of both orientations
4H1629-AA = target: T27, 4H1629-AA; conditions: mean of both orientations
4H2837-AA = target: T28, 4H2837-AA; conditions: mean of both orientations
4H234-AA = target: T29, 4H234-AA; conditions: mean of both orientations
4H48-AA = target: T30, 4H48-AA; conditions: mean of both orientations
4H2617-AA = target: T31, 4H2617-AA; conditions: mean of both orientations
4H1626-AA = target: T32, 4H1626-AA; conditions: mean of both orientations
4H1478-AA = target: T33, 4H1478-AA; conditions: mean of both orientations
4H1579-AA = target: T34, 4H1579-AA; conditions: mean of both orientations
4H94-AA = target: T35, 4H94-AA; conditions: mean of both orientations
4H2162-AA = target: T36, 4H2162-AA; conditions: mean of both orientations
4H1385-AA = target: T37, 4H1385-AA
4H485-AA = target: T38, 4H485-AA; conditions: mean of both orientations
4H310-AA = target: T39, 4H310-AA
4H2698-AA = target: T40, 4H2698-AA; conditions: mean of both orientations
4H2649-AA = target: T41, 4H2649-AA; conditions: mean of both orientations

| Binder | interaction score (4H2592-AA) | interaction score (4H2774-AA) | interaction score (4H3162-AA) | interaction score (P9-AA) | interaction score (4H1874-AA) | interaction score (4H881-AA) | interaction score (4H3588-AA) | interaction score (4H384-AA) | interaction score (4H3378-AA) | interaction score (4H794-AA) | interaction score (4H32-AA) | interaction score (4H3427-AA) | interaction score (4H48-AA) | interaction score (4H94-AA) | interaction score (4H485-AA) | interaction score (4H2698-AA) | interaction score (4H2649-AA) | also measured |
| --- | --- | --- | --- | --- | --- | --- | --- | --- | --- | --- | --- | --- | --- | --- | --- | --- | --- | --- |
| DEIAALEAENAALKAKNAALKAEIAALEG [4H249-AA] | -0.437 | 1.92 | – | – | – | – | – | – | – | – | – | – | – | – | – | – | – | interaction score (4H2580-AA): -0.825; interaction score (4H483-AA): -1.76; interaction score (4H464-AA): -1.77; interaction score (4H63-AA): -1.75; interaction score (4H446-AA): -1.26; interaction score (4H3969-AA): -1.58; interaction score (4H3939-AA): -1.85; interaction score (4H3129-AA): -2.01; interaction score (4H3414-AA): 0.535 |
| DENAALEAKIAALKAKNAALKAEIAALEG [4H1401-AA] | – | – | -0.375 | -0.999 | 1.26 | -0.879 | -0.275 | -1.67 | -0.723 | -1.02 | 0.0762 | -1.52 | 0.338 | – | – | – | – | interaction score (4H2190-AA): 1.09; interaction score (4H2944-AA): -1.67; interaction score (4H2393-AA): -1.43; interaction score (4H2883-AA): -1.43; interaction score (4H2642-AA): 1.3; interaction score (4H1629-AA): -1.08; interaction score (4H2837-AA): 1.61; interaction score (4H234-AA): 0.335; interaction score (4H2617-AA): -0.502 |
| DKNAALKAEIAALEAENAALEAKIAALKG [4H3606-AA] | – | – | – | -0.51 | – | 2.32 | – | 1.18 | – | -0.14 | – | – | -0.695 | – | – | – | – | – |
| DENAALKAKIAALEAKNAALEAKIAALEG [4H1845-AA] | – | – | -1.73 | – | -1.25 | – | -1.56 | -1.55 | -1.04 | – | -1.5 | -1.86 | – | – | – | – | – | – |
| DENAALEAKIAALKAKIAALKAEIAALEG [4H1385-AA] | – | – | – | – | – | – | – | -0.727 | – | – | – | – | – | -0.994 | -0.799 | 0.136 | -1.29 | interaction score (4H1626-AA): -1.57; interaction score (4H1478-AA): 0.852; interaction score (4H1579-AA): -0.0818; interaction score (4H2162-AA): -1.63; interaction score (4H1385-AA): 2.06; interaction score (4H310-AA; mean of both orientations): -0.553 |
| DKIAALEAENAALKAEIAALKAKIAALEG [4H2253-AA] | -1.61 | -0.645 | – | – | – | – | – | – | – | – | – | – | – | -1.54 | -0.48 | 0.72 | -1.27 | interaction score (4H310-AA): -0.688 |
